Assay results published in US20190315854A1 (BEIJING VDJBIO, published 2019).
Changes are numbered by the printed parent chain.

T1: sIL-6R (soluble IL-6 receptor; SBH Sciences) (human, UniProt P08887 20-365)
T1 construct: also called human IL-6R
T1 sequence: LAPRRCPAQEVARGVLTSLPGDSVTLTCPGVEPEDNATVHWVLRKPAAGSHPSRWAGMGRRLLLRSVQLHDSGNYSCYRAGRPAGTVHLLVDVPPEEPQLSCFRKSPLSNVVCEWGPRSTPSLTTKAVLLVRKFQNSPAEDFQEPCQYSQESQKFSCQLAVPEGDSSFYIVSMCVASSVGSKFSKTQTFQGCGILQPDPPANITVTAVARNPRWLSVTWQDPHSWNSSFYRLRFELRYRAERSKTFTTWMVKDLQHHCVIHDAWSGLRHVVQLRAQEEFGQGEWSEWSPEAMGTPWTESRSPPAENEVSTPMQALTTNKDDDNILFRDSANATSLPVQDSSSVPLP

B1: 5# (antibody, human IgG1, kappa, V domains shown)
VH: QVQLQESGPGLVRPSQTLSLTCTVSGYSITSDHAWSWVRQPPGRGLEWIGFISYSGITTYNPSLKSRVTMLRDTSKNQFSLRLSSVTAADTAVYYCARSLARTTAMDYWGQGSLVTVSS
VL: DIQMTQSPSSLSASVGDRVTITCRASQDISSYLNWYQQKPGKAPKLLIYYTSRLHSGVPSRFSGSGSGTDFTFTISSLQPEDIATYYCQQGNTLPYTFGQGTKVEIKR
notes: also called Sample # 5
B2: 7# (antibody, human IgG1, kappa, V domains shown)
VH: B1 VH with F51Y, M106I
VL: B1 VL
notes: also called Sample # 7
B3: 8# (antibody, human IgG1, kappa, V domains shown)
VH: B1 VH with Y108F
VL: B1 VL
notes: also called Sample # 8
B4: 13# (antibody, human IgG1, kappa, V domains shown)
VH: B1 VH with S99C
VL: B1 VL
notes: also called Sample # 13
B5: 245# (antibody, human IgG1, kappa, V domains shown)
VH: B1 VH with F51Y, I57M, T58I, S99T, T103M
VL: B1 VL with Q89G, T93R
B6: 239# (antibody, human IgG1, kappa, V domains shown)
VH: B1 VH with F51Y, I57M, T58I, S99C, T103A
VL: B1 VL with Q89G, T93R
B7: 238# (antibody, human IgG1, kappa, V domains shown)
VH: B1 VH with F51Y, I57M, T58I, S99C
VL: B1 VL with Q89G, T93R
B8: 243# (antibody, human IgG1, kappa, V domains shown)
VH: B1 VH with F51Y, I57M, T58I, S99C, M106I, Y108F
VL: B1 VL with Q89G, T93R
B9: 244# (antibody, human IgG1, kappa, V domains shown)
VH: B1 VH with F51Y, S99T, T103M, M106I, Y108F
VL: B1 VL with Q89G, T93R
B10: 241# (antibody, human IgG1, kappa, V domains shown)
VH: B1 VH with F51Y, I57M, S99C, T103M, M106I, Y108F
VL: B1 VL with Q89G, T93R
B11: 246# (antibody, human IgG1, kappa, V domains shown)
VH: B1 VH with F51Y, I57M, T58I, S99T, M106I, Y108F
VL: B1 VL with Q89G, T93R
B12: 242# (antibody, human IgG1, kappa, V domains shown)
VH: B1 VH with F51Y, I57M, T58I, T103M, M106I, Y108F
VL: B1 VL with Q89G, T93R
notes: also called Sample # 242
B13: 240# (antibody, human IgG1, kappa, V domains shown)
VH: B1 VH with F51Y, I57M, T58I, T103A
VL: B1 VL with Q89G, T93R
notes: also called Sample # 240

Target: T1, sIL-6R (soluble IL-6 receptor; SBH …)
Assay: SPR (BIAcore 3000), antibody on chip, sIL-6R analyte, 25 C
Protocol: (§1) All SPR measurements were performed on a BIAcore 3000 instrument (GE Biosciences, Piscataway, N.J.). BIAcore Software-BIAcore 3000 Control Software V3.2 was used for the operation and control of the BIAcore 3000 instrument. BiaEvaluation Software V4.1 was used for the analysis of SPR data from the BIAcore 3000 instrument and data was plotted using Graph Pad Prism Software Version 5. […] The indicated antibodies were used as the ligand for the construction of the reference channel of the chip. […] Each sample was injected for 3 min at a flow rate of 30 μL/min to allow for binding to chip-bound antibody. Next, binding buffer without analyte was sent over the chip at the same flow rate to allow for dissociation of bound analyte. After 500s, remaining bound analyte was removed by injecting regeneration solution (1M Formic acid). Data was analyzed by using the Kinetics Wizard and the manual fitting programs that are both included with the BiaEvaluation Software V4.1.

Kd [nM] | Relative Affinity | koff [s⁻¹] | kon [M⁻¹ s⁻¹] | Binder
0.882 | 1.5 fold vs 25 (Tocilizumab) | 0.000234 | 266000 | B1
0.763 | 1.8 fold vs 25 (Tocilizumab) | 0.000177 | 232000 | B2
0.893 | 1.5 fold vs 25 (Tocilizumab) | 0.000241 | 270000 | B3
0.373 | 3.6 fold vs 25 (Tocilizumab) | 0.0001 | 269000 | B4

Target: T1, sIL-6R (soluble IL-6 receptor; SBH …)
Assay: as above
Remark: another data set of the same source
Protocol: as §1

Kd [nM] | Relative Affinity | koff [s⁻¹] | kon [M⁻¹ s⁻¹] | Binder
0.25 | 12.6 fold vs 25 (Tocilizumab) | 3.53e-05 | 141000 | B5
0.164 | 19.3 fold vs 25 (Tocilizumab) | 2.36e-05 | 144000 | B6
0.111 | 28.5 fold vs 25 (Tocilizumab) | 1.5e-05 | 135000 | B7
0.273 | 11.6 fold vs 25 (Tocilizumab) | 1.94e-05 | 71000 | B8
0.166 | 19 fold vs 25 (Tocilizumab) | 2.33e-05 | 140000 | B9
0.202 | 15.6 fold vs 25 (Tocilizumab) | 3.61e-05 | 179000 | B10
0.0789 | 40.1 fold vs 25 (Tocilizumab) | 9.86e-06 | 125000 | B11
1.24 | 2.6 fold vs 25 (Tocilizumab) | 8.71e-05 | 70200 | B12
0.15 | 21.1 fold vs 25 (Tocilizumab) | 2.3e-05 | 154000 | B13
